Assay results: PMC2972214 (2010)

Tests used:
Test in all cases: SPR
[1] = molecular target: recombinant α-enolase of Streptococcus oralis SV11 (IPM …) (Streptococcus oralis, UniProt A0A1X1IR15 1-434)
[2] = molecular target: recombinant α-enolase of Streptococcus salivarius SV41 (IPM …) (Streptococcus salivarius, UniProt J7THK5 1-434)
[3] = molecular target: recombinant α-enolase of Streptococcus salivarius SV17 (IPM FYENG—VY) (Streptococcus salivarius, UniProt J7THK5 1-434)
[4] = molecular target: recombinant α-enolase of oral streptococcal strain SV90

B1: human plasminogen (natural protein)
chain: EPLDDYVNTQGASLFSVTKKQLGAGSIEECAAKCEEDEEFTCRAFQYHSKEQQCVIMAENRKSSIIIRMRDVVLFEKKVYLSECKTGNGKNYRGTMSKTKNGITCQKWSSTSPHRPRFSPATHPSEGLEENYCRNPDNDPQGPWCYTTDPEKRYDYCDILECEEECMHCSGENYDGKISKTMSGLECQAWDSQSPHAHGYIPSKFPNKNLKKNYCRNPDRELRPWCFTTDPNKRWELCDIPRCTTPPPSSGPTYQCLKGTGENYRGNVAVTVSGHTCQHWSAQTPHTHNRTPENFPCKNLDENYCRNPDGKRAPWCHTTNSQVRWEYCKIPSCDSSPVSTEQLAPTAPPELTPVVQDCYHGDGQSYRGTSSTTTTGKKCQSWSSMTPHRHQKTPENYPNAGLTMNYCRNPDADKGPWCFTTDPSVRWEYCNLKKCSGTEASVVAPPPVVLLPDVETPSEEDCMFGNGKGYRGKRATTVTGTPCQDWAAQEPHRHSIFTPETNPRAGLEKNYCRNPDGDVGGPWCYTTNPRKLYDYCDVPQCAAPSFDCGKPQVEPKKCPGRVVGGCVAHPHSWPWQVSLRTRFGMHFCGGTLISPEWVLTAAHCLEKSPRPSSYKVILGAHQEVNLEPHVQEIEVSRLFLEPTRKDIALLKLSSPAVITDKVIPACLPSPNYVVADRTECFITGWGETQGTFGAGLLKEAQLPVIENKVCNRYEFLNGRVQSTELCAGHLAGGTDSCQGDSGGPLVCFEKDKYILQGVTSWGLGCARPNKPGVYVRVSRFVTWIEGVMRNN
Kd [1]: 1600 nM | Kd [2]: 300 nM | Kd [3]: 500 nM | Kd [4]: 300 nM
